Data on 1 molecule can be found in article PMC9798557 (Journal of Hematology & Oncology, 2022).

What is called Kd is the constant that tells how readily two partners part at equilibrium. A high value points to a looser complex.

The assay addresses T1, human CD38 (Homo sapiens, UniProt P28907).
T1 construct: CD38, human; Used for both the SPR and the cryo-EM complex; probably a soluble extracellular form
Briefly: SPR; Biacore 8 K. The conditions noted are these: both partners purified. On the technique in general: In SPR one partner is held on a chip, and binding of the other changes the refractive index at the surface.

B1: daratumumab (antibody, V domains shown)
VH: EVQLLESGGGLVQPGGSLRLSCAVSGFTFNSFAMSWVRQAPGKGLEWVSAISGSGGGTYYADSVKGRFTISRDNSKNTLYLQMNSLRAEDTAVYFCAKDKILWFGEPVFDYWGQGTLVTVSS
VL: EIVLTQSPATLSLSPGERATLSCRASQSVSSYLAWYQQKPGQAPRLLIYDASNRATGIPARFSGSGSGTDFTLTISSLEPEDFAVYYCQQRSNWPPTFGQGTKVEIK
notes: heavy chain of daratumumab; light chain of daratumumab; Marketed anti-CD38 mAb used as a comparator
In turn, B1 showed a Kd of 3.84 nM.
